In patent US20210130428A1 (Novartis, published 2021):
Residue numbers refer to the chain shown, from its start.

Tests used:
[1] = target: T1, human BMP6 (Bone Morphogenetic Protein 6) (human, UniProt P22004 382-513, limits assumed); assay: cell-based or functional assay
T1 sequence (looked up): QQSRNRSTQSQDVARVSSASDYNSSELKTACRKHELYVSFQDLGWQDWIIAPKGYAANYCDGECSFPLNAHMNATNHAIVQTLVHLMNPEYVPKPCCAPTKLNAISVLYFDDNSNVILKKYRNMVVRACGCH

[2] = target: T2, human BMP7 (Bone Morphogenetic Protein 7) (human, UniProt P18075 293-431); assay: cell-based or functional assay
T2 sequence (looked up): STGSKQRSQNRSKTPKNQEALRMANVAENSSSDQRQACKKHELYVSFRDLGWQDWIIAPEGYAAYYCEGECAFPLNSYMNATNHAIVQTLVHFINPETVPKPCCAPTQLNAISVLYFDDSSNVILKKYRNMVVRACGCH

[3] = target: T3, human BMP5 (Bone Morphogenetic Protein 5) (human, UniProt P22003 317-454, limits assumed); assay: cell-based or functional assay
T3 sequence (looked up): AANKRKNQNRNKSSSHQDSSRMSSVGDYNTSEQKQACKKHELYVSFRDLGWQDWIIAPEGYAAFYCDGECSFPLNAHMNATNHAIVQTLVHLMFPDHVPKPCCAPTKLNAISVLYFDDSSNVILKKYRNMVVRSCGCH

[4] = target: human BMP2 (Bone Morphogenetic Protein 2) (human, UniProt P12643 283-396); assay: cell-based or functional assay
[5] = target: T1, human BMP6 (Bone Morphogenetic Protein …); assay: cell-based or functional assay; remark: listed apart in the source
[6] = target: T1, human BMP6 (Bone Morphogenetic Protein …); assay: cell-based or functional assay; remark: listed apart in the source
[7] = target: T1, human BMP6 (Bone Morphogenetic Protein …); assay: method not stated (Table 8, KD(nM) BMP6)
[8] = target: human BMP7 (Bone Morphogenetic Protein 7) (human) (UniProt P18075); assay: ELISA binding assay
[9] = target: human BMP7 (Bone Morphogenetic Protein 7) (human) (UniProt P18075); assay: cell-based or functional assay
hBaffR = target: T4, hBaffR (human, UniProt Q96RJ3); assay: ELISA binding assay, fluorescence signal intensity (anti-Fab-AP detection); antibody concentration not given
T4 construct: Unrelated control antigen no
T4 sequence (control antigen, looked up): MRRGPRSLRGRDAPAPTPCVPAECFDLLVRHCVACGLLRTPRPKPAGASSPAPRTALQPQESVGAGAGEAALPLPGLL

BSA = target: T5, BSA (bovine, UniProt P02769); assay: as above
T5 construct: Unrelated control antigen no

[10] = target: T3, human BMP5 (Bone Morphogenetic Protein …); assay: as above
Mouse BMP6 = target: T6, Mouse BMP6 (mouse, UniProt P20722); assay: ELISA binding assay, fluorescence signal intensity (anti-Fab-AP detection); one bar per antigen, antibody concentration not given
T6 construct: Antigen no
T6 sequence (ligand, looked up): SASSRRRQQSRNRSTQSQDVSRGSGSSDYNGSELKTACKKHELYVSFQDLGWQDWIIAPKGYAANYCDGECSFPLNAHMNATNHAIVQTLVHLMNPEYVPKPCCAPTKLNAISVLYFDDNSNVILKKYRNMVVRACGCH

human BMP2 (Bone Morphogenetic Protein 2), sequence (P12643 283-396 limits assumed): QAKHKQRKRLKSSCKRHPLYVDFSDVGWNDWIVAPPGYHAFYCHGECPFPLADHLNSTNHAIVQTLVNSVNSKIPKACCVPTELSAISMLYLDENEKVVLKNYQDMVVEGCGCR
T5 sequence (P02769 25-607 limits assumed): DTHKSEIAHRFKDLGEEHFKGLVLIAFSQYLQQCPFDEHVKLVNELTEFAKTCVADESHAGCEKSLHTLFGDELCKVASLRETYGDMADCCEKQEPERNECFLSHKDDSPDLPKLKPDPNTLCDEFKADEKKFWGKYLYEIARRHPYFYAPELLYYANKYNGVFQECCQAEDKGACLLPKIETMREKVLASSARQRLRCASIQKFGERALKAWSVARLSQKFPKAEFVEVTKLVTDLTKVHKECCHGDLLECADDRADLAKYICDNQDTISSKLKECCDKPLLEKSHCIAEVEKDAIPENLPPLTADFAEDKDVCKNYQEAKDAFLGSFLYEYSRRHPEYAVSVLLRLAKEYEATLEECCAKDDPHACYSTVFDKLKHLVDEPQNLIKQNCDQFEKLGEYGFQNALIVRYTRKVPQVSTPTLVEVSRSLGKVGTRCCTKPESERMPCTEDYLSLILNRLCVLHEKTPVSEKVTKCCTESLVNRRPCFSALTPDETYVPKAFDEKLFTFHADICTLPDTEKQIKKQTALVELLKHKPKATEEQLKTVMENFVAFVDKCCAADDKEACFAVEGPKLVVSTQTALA

B1: Antibody 5 (antibody, human IgG1, lambda, V domains shown)
VH: QVQLVESGGGLVKPGGSLRLSCAASGFTFSSYVVHWVRQAPGKGLEWVGRIKRESSSYTTMYAAPVKGRFTISRDDSKNTLYLQMNSLKTEDTAVYYCARVERSKSGFDNWGQGTLVTVSS
VL: QSVLTQPPSVSGAPGQRVTISCTGSSSNIGAGYSVHWYQQLPGTAPKLLIYGQSERPSGVPDRFSGSKSGTSASLAITGLQAEDEADYYCQSWDSSQTLVVFGGGTKLTVLG
notes: also called Ab 5
IC50, BMP reporter (BRE-luc) activity in Hep3B [1]: 0.4 nM
selectivity window against BMP6, BMP reporter gene assay [2]: ≥ 500 fold
selectivity window against BMP6, BMP reporter gene assay [3]: ≥ 500 fold
selectivity window against BMP6, BMP reporter gene assay [4]: ≥ 500 fold
IC50(ug/ml) BMP6 reporter [5]: 0.06 µg/mL
IC50 (read off the curve), BMP reporter gene assay [panel Ab5] [6]: ~0.5 nM
Kd [7]: 0.1 nM

B2: Antibody 6 (antibody, human IgG1, lambda, V domains shown)
VH: B1 VH with I51T, K52R, R53H, E54S, S55D, S56M, S57G, T59A, M61S
VL: B1 VL
notes: also called Ab 6
IC50, BMP reporter (BRE-luc) activity in Hep3B [1]: 0.4 nM
selectivity window against BMP6, BMP reporter gene assay [2]: ≥ 500 fold
selectivity window against BMP6, BMP reporter gene assay [3]: ≥ 500 fold
selectivity window against BMP6, BMP reporter gene assay [4]: ≥ 500 fold
IC50(ug/ml) BMP6 reporter [5]: 0.08 µg/mL
IC50 (read off the curve), BMP reporter gene assay [panel Ab6] [6]: ~0.5 nM
Kd [7]: < 0.1 nM

B3: Antibody 7 (antibody, human IgG1, lambda, V domains shown)
VH: B1 VH with K52R, R53L, S55T, S56H, S57G, T59A, T60A, M61E, P65S
VL: B1 VL
notes: also called Ab 7; Ab7
selectivity, affinity to human BMP6 over affinity to human BMP7 [8]: > 500 fold
selectivity window against BMP6, BMP reporter gene assay [9]: > 500 fold
IC50, BMP reporter (BRE-luc) activity in Hep3B [1]: 0.4 nM
selectivity window against BMP6, BMP reporter gene assay [3]: ≥ 500 fold
selectivity window against BMP6, BMP reporter gene assay [4]: ≥ 500 fold
IC50(ug/ml) BMP6 reporter [5]: 0.07 µg/mL
IC50 (read off the curve), BMP reporter gene assay [panel Ab7] [6]: ~0.5 nM
Kd [7]: 0.1 nM
binding result (hBaffR): no binding
binding result (BSA): no binding
binding result [10]: no binding
binding result (Mouse BMP6): binds
